Results as given in patent US20190077860A1 (EISAI R AND D MANAGEMENT, published 2019).
Residue numbers refer to the chain shown, from its start.

B1: humanized antibody No. 90 (antibody, human IgG1, kappa)
heavy: QVQLVQSGSELKKPGASVKVSCKASGYTFTDYSMHWVRQAPGQGLEWMGWINTETGEPTYADDFKGRFVFSLDTSVSTAYLQISSLKAEDTAVYYCARIPLYYYGSRYWYFDVWGQGTTVTVSSASTKGPSVFPLAPSSKSTSGGTAALGCLVKDYFPEPVTVSWNSGALTSGVHTFPAVLQSSGLYSLSSVVTVPSSSLGTQTYICNVNHKPSNTKVDKRVEPKSCDKTHTCPPCPAPPAAAPSVFLFPPKPKDTLMISRTPEVTCVVVDVSHEDPEVQFNWYVDGVEVHNAKTKPREEQFNSTFRVVSVLTVVHQDWLNGKEYKCKVSNKGLPAPIEKTISKTKGQPREPQVYTLPPSREEMTKNQVSLTCLVKGFYPSDIAVEWESNGQPENNYKTTPPMLDSDGSFFLYSKLTVDKSRWQQGNVFSCSVMHEALHNHYTQKSLSLSPG
light: DIQMTQSPSSLSASVGDRVTITCRASENIYRNLAWYQQKPGKAPQLLLYAATNLADGVPSRFSGSGSGTDYTLTISSLQPEDFATYYCQHFWGTPWTFGQGTKVEIKRTVAAPSVFIFPPSDEQLKSGTASVVCLLNNFYPREAKVQWKVDNALQSGNSQESVTEQDSKDSTYSLSSTLTLSKADYEKHKVYACEVTHQGLSSPVTKSFNRGEC
notes: human Ig kappa; also called L1-6/HK1
B2: humanized antibody No. 91 (antibody, human IgG1, kappa)
heavy: B1 heavy with E46K
light: B1 light
notes: human Ig kappa; also called L1-6/HK2
B3: humanized antibody No. 92 (antibody, human IgG1, kappa)
heavy: B1 heavy with V2I, E46K
light: B1 light
notes: human Ig kappa; also called L1-6/HK4
B4: humanized antibody No. 140 (antibody, human IgG2)
heavy: QVQLVQSGSELKKPGASVKVSCKASGYTFTDYSMHWVRQAPGQGLKWMGWINTETGEPTYAQGFTGRFVFSLDTSVSTAYLQISSLKAEDTAVYYCARIPLYYYGSRYWYFDVWGQGTTVTVSSASTKGPSVFPLAPSSRSTSESTAALGCLVKDYFPEPVTVSWNSGALTSGVHTFPAVLQSSGLYSLSSVVTVPSSNFGTQTYTCNVDHKPSNTKVDKTVERKSCVECPPCPAPPAAAPSVFLFPPKPKDTLMISRTPEVTCVVVDVSHEDPEVQFNWYVDGVEVHNAKTKPREEQFNSTFRVVSVLTVVHQDWLNGKEYKCKVSNKGLPAPIEKTISKTKGQPREPQVYTLPPSREEMTKNQVSLTCLVKGFYPSDIAVEWESNGQPENNYKTTPPMLDSDGSFFLYSKLTVDKSRWQQGNVFSCSVMHEALHNHYTQKSLSLSPG
light: B1 light with Q45K, L48V
notes: human Ig kappa; also called L1-4/HA2
B5: humanized antibody No. 138 (antibody, human IgG2)
heavy: B4 heavy with V2I
light: B1 light with Q45K, L48V
notes: human Ig kappa; also called L1-4/HA4
B6: humanized antibody No. 139 (antibody, human IgG2)
heavy: B4 heavy with K46E
light: B1 light with Q45K, L48V
notes: human Ig kappa; also called L1-4/HA1
B7: humanized antibody No. 141 (antibody, human IgG2)
heavy: B4 heavy with K46E, Q62D, G63D, T65K
light: B1 light with Q45K, L48V
notes: human Ig kappa; also called L1-4/HK1
B8: humanized antibody No. 142 (antibody, human IgG2)
heavy: B4 heavy with Q62D, G63D, T65K
light: B1 light with Q45K, L48V
notes: human Ig kappa; also called L1-4/HK2
B9: humanized antibody No. 143 (antibody, human IgG2)
heavy: B4 heavy with V2I, Q62D, G63D, T65K
light: B1 light with Q45K, L48V
notes: human Ig kappa; also called L1-4/HK4
B10: humanized antibody No. 144 (antibody, human IgG2)
heavy: B4 heavy with K46E, Q62D, G63D, T65K
light: B1 light
notes: as for B1

Assays:
Assay in all cases: ELISA
SEAP-His = SEAP-His (UniProt P05187 23-511)
Method: (§1) Each well of a 96-well plate (Nunc) was coated with a rabbit anti-6-His antibody (Bethyl Laboratories). Each well was […] After washing with 0.05% Tween 20/PBS (Nacalai Tesque) three times, the SEAP-His protein of human EphA1, EphA2, EphA3, EphA4, EphA5, EphA6, EphA7, EphA8, EphA10, EphB1, EphB2, EphB3, EphB4, or EphB6 was added (final concentration: 1 nM) to each well and incubated at room temperature for 1 hour. After washing three times, the humanized antibody was added to each well and incubated at room temperature for 1 hour. After washing three times, a horseradish peroxidase-labeled donkey […] antibody (Jackson ImmunoResearch Laboratories) was added thereto and incubated at room temperature for 1 hour. After washing three times, TMB Microwell Peroxidase Substrate System (Kirkegaard & Perry Laboratories (KPL)) was added to each well. After confirmation of moderate color development, an equal amount of a reaction stopping solution (1N H₂SO₄, Wako Pure Chemical Industries) was added to each well. The absorbance at 450 nm was read using a microplate reader (Thermo Fisher Scientific).

[1] = target: T1, human EphA1 extracellular region-SEAP-His protein (human, UniProt P21709 26-547)
T1 construct: extracellular domain; also called hEphA1-SEAP-His
T1 sequence (looked up): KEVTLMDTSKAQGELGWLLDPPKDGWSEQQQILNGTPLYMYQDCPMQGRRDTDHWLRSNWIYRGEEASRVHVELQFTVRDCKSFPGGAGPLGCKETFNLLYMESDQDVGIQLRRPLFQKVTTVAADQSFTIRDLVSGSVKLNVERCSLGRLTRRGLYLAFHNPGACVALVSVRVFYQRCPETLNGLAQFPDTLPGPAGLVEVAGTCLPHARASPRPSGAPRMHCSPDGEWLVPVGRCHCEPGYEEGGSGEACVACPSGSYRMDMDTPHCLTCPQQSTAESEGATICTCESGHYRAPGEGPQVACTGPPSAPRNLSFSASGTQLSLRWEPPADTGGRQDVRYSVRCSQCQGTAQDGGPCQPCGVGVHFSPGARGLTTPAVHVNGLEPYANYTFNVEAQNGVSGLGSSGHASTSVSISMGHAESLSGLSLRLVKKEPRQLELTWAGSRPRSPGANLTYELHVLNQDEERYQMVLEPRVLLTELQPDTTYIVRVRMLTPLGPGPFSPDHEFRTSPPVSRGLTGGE
Method: as §1

[2] = target: T2, human EphA5 extracellular region-SEAP-His protein (human, UniProt P54756 25-573)
T2 construct: extracellular domain; also called hEphA5-SEAP-His
Method: as §1

[3] = target: T3, human EphA7 extracellular region-SEAP-His protein (human, UniProt Q15375 28-555)
T3 construct: extracellular domain; also called hEphA7-SEAP-His
T3 sequence (looked up): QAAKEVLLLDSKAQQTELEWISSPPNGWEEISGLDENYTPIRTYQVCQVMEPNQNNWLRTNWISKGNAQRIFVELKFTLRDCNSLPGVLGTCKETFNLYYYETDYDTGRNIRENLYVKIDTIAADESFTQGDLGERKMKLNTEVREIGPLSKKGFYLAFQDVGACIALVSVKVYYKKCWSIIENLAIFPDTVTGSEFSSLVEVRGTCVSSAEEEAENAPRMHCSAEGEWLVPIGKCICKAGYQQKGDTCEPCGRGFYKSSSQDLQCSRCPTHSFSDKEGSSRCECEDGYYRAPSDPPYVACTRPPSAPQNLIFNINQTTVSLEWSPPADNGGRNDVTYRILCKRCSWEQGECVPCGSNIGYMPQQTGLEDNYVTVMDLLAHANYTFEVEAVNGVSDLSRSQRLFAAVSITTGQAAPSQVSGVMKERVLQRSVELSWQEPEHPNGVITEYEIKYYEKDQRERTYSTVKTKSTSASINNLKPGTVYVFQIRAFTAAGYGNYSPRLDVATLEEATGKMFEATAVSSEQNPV
Method: as §1

[4] = target: T4, human EphA10 extracellular region-SEAP-His protein (human, UniProt Q5JZY3 34-565)
T4 construct: extracellular domain; also called hEphA10-SEAP-His
T4 sequence (looked up): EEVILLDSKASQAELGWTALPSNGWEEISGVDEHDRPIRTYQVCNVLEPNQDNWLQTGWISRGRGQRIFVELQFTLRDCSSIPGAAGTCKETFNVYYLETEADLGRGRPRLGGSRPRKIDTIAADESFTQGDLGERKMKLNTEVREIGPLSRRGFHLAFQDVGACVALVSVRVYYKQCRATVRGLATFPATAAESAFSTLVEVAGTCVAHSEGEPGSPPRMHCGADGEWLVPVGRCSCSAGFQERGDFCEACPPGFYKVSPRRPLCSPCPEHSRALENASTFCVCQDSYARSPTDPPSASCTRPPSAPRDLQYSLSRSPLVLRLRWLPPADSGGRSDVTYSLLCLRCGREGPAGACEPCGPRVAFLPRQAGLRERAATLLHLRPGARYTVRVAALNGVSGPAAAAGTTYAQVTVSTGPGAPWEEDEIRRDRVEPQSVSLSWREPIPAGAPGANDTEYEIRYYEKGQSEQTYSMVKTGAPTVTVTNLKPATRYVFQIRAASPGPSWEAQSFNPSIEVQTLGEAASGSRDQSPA
Method: as §1

[5] = target: T5, human EphB6 extracellular region-SEAP-His protein (human, UniProt O15197 32-594)
T5 construct: extracellular domain; also called hEphB6-SEAP-His
T5 sequence (looked up): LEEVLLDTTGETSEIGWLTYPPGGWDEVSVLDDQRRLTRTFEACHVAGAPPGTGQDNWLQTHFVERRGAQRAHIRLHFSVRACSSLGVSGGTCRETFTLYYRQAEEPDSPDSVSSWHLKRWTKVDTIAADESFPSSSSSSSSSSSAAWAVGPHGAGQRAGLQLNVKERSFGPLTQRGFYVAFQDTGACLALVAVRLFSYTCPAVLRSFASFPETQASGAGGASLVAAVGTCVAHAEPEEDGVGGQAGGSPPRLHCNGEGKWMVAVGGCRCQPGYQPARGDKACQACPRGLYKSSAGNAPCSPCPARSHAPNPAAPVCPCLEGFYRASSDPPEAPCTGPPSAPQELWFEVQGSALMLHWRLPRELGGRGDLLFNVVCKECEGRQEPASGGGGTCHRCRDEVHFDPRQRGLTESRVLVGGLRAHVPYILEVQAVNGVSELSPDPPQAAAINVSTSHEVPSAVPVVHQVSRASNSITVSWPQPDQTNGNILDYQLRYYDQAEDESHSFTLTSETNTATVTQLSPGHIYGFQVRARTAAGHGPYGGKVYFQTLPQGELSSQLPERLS
Method: as §1

SEAP-His, sequence (P05187 23-511): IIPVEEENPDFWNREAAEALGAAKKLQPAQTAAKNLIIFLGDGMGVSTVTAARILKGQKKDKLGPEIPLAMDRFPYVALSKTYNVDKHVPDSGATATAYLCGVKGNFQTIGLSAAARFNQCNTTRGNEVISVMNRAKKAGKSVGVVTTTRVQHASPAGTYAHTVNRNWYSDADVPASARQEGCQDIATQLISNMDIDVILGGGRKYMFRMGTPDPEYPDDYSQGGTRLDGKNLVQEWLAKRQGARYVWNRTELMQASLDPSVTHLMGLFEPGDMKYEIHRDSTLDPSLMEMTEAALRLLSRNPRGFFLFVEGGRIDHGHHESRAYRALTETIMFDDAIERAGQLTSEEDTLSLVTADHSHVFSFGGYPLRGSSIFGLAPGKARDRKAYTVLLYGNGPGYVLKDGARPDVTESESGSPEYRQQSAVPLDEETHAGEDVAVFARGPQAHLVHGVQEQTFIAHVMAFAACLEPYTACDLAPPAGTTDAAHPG
T2 sequence (P54756 25-573): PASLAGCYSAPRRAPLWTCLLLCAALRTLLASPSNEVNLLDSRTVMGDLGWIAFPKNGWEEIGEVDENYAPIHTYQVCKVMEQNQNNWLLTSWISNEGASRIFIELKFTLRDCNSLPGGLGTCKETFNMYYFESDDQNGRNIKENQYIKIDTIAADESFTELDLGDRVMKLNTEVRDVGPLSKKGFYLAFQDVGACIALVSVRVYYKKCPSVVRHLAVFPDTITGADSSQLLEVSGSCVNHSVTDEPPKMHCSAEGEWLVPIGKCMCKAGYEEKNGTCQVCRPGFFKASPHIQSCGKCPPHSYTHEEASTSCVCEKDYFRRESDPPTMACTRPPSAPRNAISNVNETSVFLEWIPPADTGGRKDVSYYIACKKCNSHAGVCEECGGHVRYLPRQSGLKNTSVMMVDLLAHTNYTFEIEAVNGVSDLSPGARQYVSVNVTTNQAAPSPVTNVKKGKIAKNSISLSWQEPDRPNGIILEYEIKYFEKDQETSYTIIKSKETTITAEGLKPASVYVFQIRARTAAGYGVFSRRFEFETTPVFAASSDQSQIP

Binder | A450 as % of hEphA4-SEAP-His (SEAP-His) [%] | A450 as % of hEphA4-SEAP-His [1] [%] | A450 as % of hEphA4-SEAP-His [2] [%] | A450 as % of hEphA4-SEAP-His [3] [%] | A450 as % of hEphA4-SEAP-His [4] [%] | A450 as % of hEphA4-SEAP-His [5] [%]
B1 | 5.2 | 5.1 | 5.1 | 4.9 | 5.1 | 5.2
B2 | 6.4 | 5.8 | 6.4 | 5.6 | 8.5 | 6.3
B3 | 6.5 | 7 | 6.8 | 6.4 | 6.6 | 6.5
B4 | 5.4 | 5.5 | 5.4 | 5.2 | 5.2 | 5.2
B5 | 5.1 | 5.2 | 5.1 | 4.9 | 5 | 5
B6 | 5.7 | 5.7 | 5.7 | 5.5 | 5.5 | 5.9
B7 | 5 | 5.3 | 5.3 | 5.3 | 5.2 | 5.4
B8 | 5.8 | 5.6 | 5.7 | 5.5 | 5.4 | 5.6
B9 | 6.3 | 6 | 6.1 | 5.8 | 5.2 | 5.6
B10 | 5.7 | 5.6 | 5.6 | 5.6 | 5.7 | 5.9
